Columns and labels:
Nalm6 cells = assay: JNG assay, co-culture with Nalm6 cells; format: cell-based; conditions: co-culture with Nalm6
Description: Cellular supernatant is collected and assayed for the induction of cytokines (e.g., IL2).
JNG (Jurkat cells expressing EGFP under an NFAT promoter) were infected with lentiviral vectors encoding different single chain and multi-chain SARs by spinfection in the presence of 8 µg/ml of Polybrene® (Sigma, Catalog no. H9268). The Jurkat-NFAT-GFP cells are engineered in such a way that the IL-2 promoter, which carries NFAT binding sites, is cloned upstream of the GFP gene. These cells have been used to study signaling via TCR and CAR. The different SARs were stably expressed in Jurkat NFAT-GFP cells by lentiviral mediated gene transfer, followed by selection with puromycin or blasticidin. No drug selection was used in case the construct lacked an antibiotic resistance gene. The SAR-expressing Jurkat-NFAT-GFP cells were cocultured with the target cells at E:T ratio of approximately 1:2 for approximately 4 hours to 18 hours. When the interaction between SIRs and their target antigen results in activation of the NFAT pathway, GFP expression is induced. […] GFP expression was monitored by FACS analysis. The Jurkat-NFAT-GFP (parental) cells were used as control. The structure of different constructs can be determined based on their names. For example, the construct CD8SP-CD19-hu-mROO5-1-vL-[hTCRa-C SDVP]-F-F2A-Spe-IgHSP-Apa-CD20-vHH-2HCD25-G4S-CDl9-hu-mROO5-1-vH-Mlu-[hTCRb-KACIAH]-F-P2A-PAC has the following modules from 5′ to 3′ direction: a CD8 signal peptide (CD8SP), the CD19 targeting hu-mROO5-1 vL fragment (CD19-hu-mROO5-1), Xho1 cloning site, human TCRa constant chain containing CSDVP mutations (hTCRa-CSDVP), Furine cleavage site (F), F2A ribosomal skip sequence (F2A), SpeI site, human IgH signal peptide (IgHSP), Apa I restriction enzyme site, camelid CD20-2HCD25-VHH module targeting CD20, BamHI restriction enzyme site, Glycinex4-serine linker (G4S), BstI restriction enzyme site, CD19-hu-mROO5-1-vH fragment targeting CD19, Mlu I restriction enzyme site, human TCRb constant chain containing KACIAH mutations ([hTCRb-KACIAH]), Furine cleavage site (F), P2A ribosomal skip sequence and Puromycin resistance gene (PAC). The sequence of the other constructs in the table can be similarly determined from their names and by referring to the different Tables of this disclosure that provide the names and SEQ ID NO of the different modules. Alternatively, the composition and modular architecture of the different SAR constructs can be determined from their sequences by bioinformatics tools, including using nucleic acid and amino acids homology searches. A SAR is considered positive in the assay in case the SAR expressing Jurkat-NFAT-GFP cells show greater % GFP positive cells when cultured with the target cell line as compared to parental Jurkat-NFAT-GFP cells. The signs +/-, +, 2+ etc. after the name of the cell lines indicate the relative degree of positivity on the Jurkat-NFAT-GFP assay as measured by the % GFP positive cells after culture of the SAR expressing Jurkat-NFAT-GFP cells with that cell line above the % GFP cells observed in parental Jurkat NFAT-GFP cells serving as controls. In general, the number +/-, +, 2+, 3+, 4+, 5+ refer to approximately 5%, 10%, 20%, 30%, 40% and 50% GFP positive cells. The % of GFP induction in the above assay is dependent not only the relative strength of the SAR but also, among other factors, on the relative level of expression of the SAR in the JNG cells and the relative level of expression of the target antigen in the target cell line. To control for the difference in gene transduction efficiency of the different SAR constructs, the experiment was conducted with JNG cells transduced with SAR constructs co-expressing a drug resistance gene (e.g., puromycin or PAC) followed by drug selection to generate a stable population of SAR-expressing cells. […]

RAJI cells = assay: JNG assay, co-culture with RAJI cells; format: cell-based; conditions: JNG cells expressing construct, co-culture with Raji
Procedure, shortened: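 Jurkat-NFAT-GFP (JNG) cells stably expressing SAR constructs via lentiviral transduction and puromycin/blasticidin selection were cocultured with target cells at E:T ~1:2 for ~4–18 h. NFAT-driven GFP was measured by FACS versus parental JNG cells; scores +/- to 5+ denote ~5–50% GFP-positive cells.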

| Molecule | NFAT-GFP ASSAY: Nalm6 (Nalm6 cells) | NFAT-GFP ASSAY: Raji (RAJI cells) |
| --- | --- | --- |
| 22020 (protein) MALPVTALLLPLALLLHAARPQLQLQESGPGLVKPSETLSLTCTVSGDSISSGDYYWGWIRQPPGKGLEWIGHIYYSGVTYYNPSLKSRVTISVDTSRNQFSLKLSSVTAADTAVYYCTREDSSNWRSRGQGTLVTVSSLDSGGGGSFEQLQLQESGPGLVKPSETLSLTCTVSGGSISSGDYYWGWIRQPPGKGLEWIGHIYYSGATYYNPSLKSRVTISVDTSRNQFSLKLSSVTAADTAVYYCTRDDSSNWRSRGQGTLVTVSSTRIQNPDPAVYQLRDSKSSDKSVCLFTDFDSQTNVSQSKDSDVYITDKCVLDMRSMDFKSNSAVAWSNKSDFACANAFNNSIIPEDTFFPSPESSCDVKLVEKSFETDTNLNFQNLSVIGFRILLLKVAGFNLLMTLRLWSSRAKRSGSGVKQTLNFDLLKLAGDVESNPGPSRGHMTEYKPTVRLATRDDVPRAVRTLAAAFADYPATRHTVDPDRHIERVTELQELFLTRVGLDIGKVWVADDGAAVAVWTTPESVEAGAVFAEIGPRMAELSGSRLAAQQQMEGLLAPHRPKEPAWFLATVGVSPDHQGKGLGSAVVLPGVEAAERAGVPAFLETSAPRNLPFYERLGFTVTADVEVPEGPRTWCMTRKPGA | +/- (refer to approximately 5%, 10%, 20%, 30%, 40% and 50% GFP positive cells) | +/- (refer to approximately 5%, 10%, 20%, 30%, 40% and 50% GFP positive cells) |
| 22096 (protein) MALPVTALLLPLALLLHAARPQLQLQESGPGLVKPSETLSLTCTVSGDSISSGDYYWGWIRQPPGKGLEWIGHIYYSGVTYYNPSLKSRVTISVDTSRNQFSLKLSSVTAADTAVYYCTREDSSNWRSRGQGTLVTVSSLEGQPKANPTVTLFPPSSEELQANKATLVCLISDFYPGAVTVAWKADGSPVKAGVETTKPSKQSNNKYAASSYLSLTPEQWKSHRSYSCQVTHEGSTVEKTVAPTECSPIKTDVITMDPKDNCSKDANDTLLLQLTNTSAYYMYLLLLLKSVVYFAIITCCLLRRTAFCCNGEKSRAKRSGSGATNFSLLKQAGDVEENPGPTSMDWIWRILFLVGAATGAHSFEVQLLESGGGLIQPGGSLRLSCAASGFTFSSHAMTWVRQAPGKGLEWVSAISGSGDYTHYADSVKGRFTISRDNSKNTVYLQMNSLRAEDSAVYYCAKDEDGGSLLGHRGQGTLVTVSSTRASTKGPSVFPLAPSSKSTSGGTAALGCLVKDYFPEPVTVSWNSGALTSGVHTFPAVLQSSGLYSLSSVVTVPSSSLGTQTYICNVNHKPSNTKVDKRVEPKSCEVKTDSTDHVKPKETENTKQPSKSCHKPKAIVHTEKVNMMSLTVLGLRMLFAKTVAVNFLLTAKLFFLRAKRSGSGVKQTLNFDLLKLAGDVESNPGPSRGHMTEYKPTVRLATRDDVPRAVRTLAAAFADYPATRHTVDPDRHIERVTELQELFLTRVGLDIGKVWVADDGAAVAVWTTPESVEAGAVFAEIGPRMAELSGSRLAAQQQMEGLLAPHRPKEPAWFLATVGVSPDHQGKGLGSAVVLPGVEAAERAGVPAFLETSAPRNLPFYERLGFTVTADVEVPEGPRTWCMTRKPGA | + (refer to approximately 5%, 10%, 20%, 30%, 40% and 50% GFP positive cells) | 2+ (refer to approximately 5%, 10%, 20%, 30%, 40% and 50% GFP positive cells) |
| 22162 (protein) MALPVTALLLPLALLLHAARPDIQMTQSPSSLSASVGDRVTITCKASDHINNWLAWYQQKPGQAPKLLIYGATTLETGVPSRFSGSGSGTDYTLTISSLQPEDFATYYCQQSWNTPWTFGQGTKLEIKRLEDLKNVFPPEVAVFEPSEAEISHTQKATLVCLATGFYPDHVELSWWVNGKEVHSGVCTDPQPLKEQPALNDSRYCLSSRLRVSATFWQNPRNHFRCQVQFYGLSENDEWTQDRAKPVTQIVSAEAWGRADCGFTSESYQQGVLSATILYEILLGKATLYAVLVSALVLMAMVKRKDSRGRAKRSGSGATNFSLLKQAGDVEENPGPTSATMDWIWRILFLVGAATGAHSGPEVQLLESGGGLVQPGGSLRLSCAASGSIASIHAMGWFRQAPGKEREFVAVITWSGGITYYADSVKGRFTISRDNSKNTVYLQMNSLRPEDTALYYCAGDKHQSSWYDYWGQGTLVTVSSGSGGGGSGGGGSGGGGSFEQVQLQQPGAELVKPGASVKMSCKASGYAFSSYWINWMKQKPGQGLEWIGQIYPGDGDTNYNGKFKGRATLTADTSSSTAYMQLSSLTSEDSAVYFCARSITTVVGCAMDYWGQGTSVTVSSTRIQNPDPAVYQLRDSKSSDKSVCLFTDFDSQTNVSQSKDSDVYITDKCVLDMRSMDFKSNSAVAWSNKSDFACANAFNNSIIPEDTFFPSPESSCDVKLVEKSFETDTNLNFQNLSVIGFRILLLKVAGFNLLMTLRLWSSRAKRSGSGVKQTLNFDLLKLAGDVESNPGPSRGHMTEYKPTVRLATRDDVPRAVRTLAAAFADYPATRHTVDPDRHIERVTELQELFLTRVGLDIGKVWVADDGAAVAVWTTPESVEAGAVFAEIGPRMAELSGSRLAAQQQMEGLLAPHRPKEPAWFLATVGVSPDHQGKGLGSAVVLPGVEAAERAGVPAFLETSAPRNLPFYERLGFTVTADVEVPEGPRTWCMTRKPGA | 5+ (refer to approximately 5%, 10%, 20%, 30%, 40% and 50% GFP positive cells) |  |
| 21985 (protein) MALPVTALLLPLALLLHAARPQLQLQESGPGLVKPSETLSLTCTVSGDSISSGDYYWGWIRQPPGKGLEWIGHIYYSGVTYYNPSLKSRVTISVDTSRNQFSLKLSSVTAADTAVYYCTREDSSNWRSRGQGTLVTVSSLEDLKNVFPPEVAVFEPSEAEISHTQKATLVCLATGFYPDHVELSWWVNGKEVHSGVCTDPQPLKEQPALNDSRYCLSSRLRVSATFWQNPRNHFRCQVQFYGLSENDEWTQDRAKPVTQIVSAEAWGRADCGFTSESYQQGVLSATILYEILLGKATLYAVLVSALVLMAMVKRKDSRGRAKRSGSGATNFSLLKQAGDVEENPGPTSMDWIWRILFLVGAATGAHSFEVQLLESGGGLIQPGGSLRLSCAASGFTFSSHAMTWVRQAPGKGLEWVSAISGSGDYTHYADSVKGRFTISRDNSKNTVYLQMNSLRAEDSAVYYCAKDEDGGSLLGHRGQGTLVTVSSTRIQNPDPAVYQLRDSKSSDKSVCLFTDFDSQTNVSQSKDSDVYITDKCVLDMRSMDFKSNSAVAWSNKSDFACANAFNNSIIPEDTFFPSPESSCDVKLVEKSFETDTNLNFQNLSVIGFRILLLKVAGFNLLMTLRLWSSRAKRSGSGVKQTLNFDLLKLAGDVESNPGPSRGHMTEYKPTVRLATRDDVPRAVRTLAAAFADYPATRHTVDPDRHIERVTELQELFLTRVGLDIGKVWVADDGAAVAVWTTPESVEAGAVFAEIGPRMAELSGSRLAAQQQMEGLLAPHRPKEPAWFLATVGVSPDHQGKGLGSAVVLPGVEAAERAGVPAFLETSAPRNLPFYERLGFTVTADVEVPEGPRTWCMTRKPGA | +/- (refer to approximately 5%, 10%, 20%, 30%, 40% and 50% GFP positive cells) |  |

From patent US20230212319A1, “NOVEL ANTIGEN BINDING DOMAINS AND SYNTHETIC ANTIGEN RECEPTORS INCORPORATING THE SAME” (University of Southern California, priority 2020, published 2023)
